Test results reported in patent US20130089555A1 (Genentech, published 2013).

Columns and labels:
[1] = biological target: T1, human FcRH5 (PRO52387; FcRH5c/IRTA2c), antigen as used in Biacore and in hybridoma screening (human, UniProt Q96RD9 16-851, limits assumed); assay: SPR (Biacore 2000), IgG captured on anti-murine IgG chip, FcRH injected, 1:1 Langmuir fit, 25 C
T1 construct: The Biacore text only says that 'various FcRHs were injected'; also called Hu antigen; FcRH5/IRTA2
T1 chain: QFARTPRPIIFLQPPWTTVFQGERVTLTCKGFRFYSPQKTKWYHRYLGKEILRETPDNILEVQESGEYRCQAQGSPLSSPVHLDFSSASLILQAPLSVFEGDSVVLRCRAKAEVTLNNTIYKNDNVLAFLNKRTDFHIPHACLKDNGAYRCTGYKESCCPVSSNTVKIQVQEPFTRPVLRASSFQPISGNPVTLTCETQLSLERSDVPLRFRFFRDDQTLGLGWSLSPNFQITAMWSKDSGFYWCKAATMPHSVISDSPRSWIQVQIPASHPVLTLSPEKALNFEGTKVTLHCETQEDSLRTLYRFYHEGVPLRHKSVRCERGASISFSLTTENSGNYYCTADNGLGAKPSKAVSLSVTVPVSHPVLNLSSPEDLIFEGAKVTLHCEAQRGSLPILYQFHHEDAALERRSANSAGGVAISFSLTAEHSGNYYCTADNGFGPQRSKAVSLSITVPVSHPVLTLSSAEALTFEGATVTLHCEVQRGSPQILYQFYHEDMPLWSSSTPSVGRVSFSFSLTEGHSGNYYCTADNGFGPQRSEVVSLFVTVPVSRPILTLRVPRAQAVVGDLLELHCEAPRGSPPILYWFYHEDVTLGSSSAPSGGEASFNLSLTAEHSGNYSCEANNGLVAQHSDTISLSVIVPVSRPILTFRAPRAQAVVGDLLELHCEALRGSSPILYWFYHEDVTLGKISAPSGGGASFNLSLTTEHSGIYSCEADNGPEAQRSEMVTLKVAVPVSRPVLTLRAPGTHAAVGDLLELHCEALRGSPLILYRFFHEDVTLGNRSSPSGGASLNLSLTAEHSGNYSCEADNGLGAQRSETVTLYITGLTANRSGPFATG
Experimental: The FcRH-binding affinities of IgGs were calculated from association and dissociation rate constants measured using a Biacore 2000 surface plasmon resonance system (BIAcore, Inc.). […] Briefly, for each cycle of kinetic analysis, 5 ul of 100 nM IgG was captured on the chip, two-fold serial dilution of various FcRHs were injected at a flow rate of 20 ul/min for 150 sec. Antigen dissociation was monitored for 180 sec before regeneration. Equilibrium dissociation constants at 25° C. were calculated by fitting the data with a 1:1 Langmuir binding model. Running buffer was PBS with 0.05% Tween-20.

[2] = biological target: T2, human FcRH5 on stably transfected cells (BJAB, OPM2) (human, UniProt Q96RD9 16-977); assay: Scatchard, 125I-labelled antibody competed with the unlabelled same antibody on OPM2.huFcRH5 cells, 4 C; St. Error 0.150
T2 construct: Cells were transfected with pRK.CMV.PD.nbe.FcRH5 (untagged); also called huFcRH5; BJAB.huFcRH5
T2 chain: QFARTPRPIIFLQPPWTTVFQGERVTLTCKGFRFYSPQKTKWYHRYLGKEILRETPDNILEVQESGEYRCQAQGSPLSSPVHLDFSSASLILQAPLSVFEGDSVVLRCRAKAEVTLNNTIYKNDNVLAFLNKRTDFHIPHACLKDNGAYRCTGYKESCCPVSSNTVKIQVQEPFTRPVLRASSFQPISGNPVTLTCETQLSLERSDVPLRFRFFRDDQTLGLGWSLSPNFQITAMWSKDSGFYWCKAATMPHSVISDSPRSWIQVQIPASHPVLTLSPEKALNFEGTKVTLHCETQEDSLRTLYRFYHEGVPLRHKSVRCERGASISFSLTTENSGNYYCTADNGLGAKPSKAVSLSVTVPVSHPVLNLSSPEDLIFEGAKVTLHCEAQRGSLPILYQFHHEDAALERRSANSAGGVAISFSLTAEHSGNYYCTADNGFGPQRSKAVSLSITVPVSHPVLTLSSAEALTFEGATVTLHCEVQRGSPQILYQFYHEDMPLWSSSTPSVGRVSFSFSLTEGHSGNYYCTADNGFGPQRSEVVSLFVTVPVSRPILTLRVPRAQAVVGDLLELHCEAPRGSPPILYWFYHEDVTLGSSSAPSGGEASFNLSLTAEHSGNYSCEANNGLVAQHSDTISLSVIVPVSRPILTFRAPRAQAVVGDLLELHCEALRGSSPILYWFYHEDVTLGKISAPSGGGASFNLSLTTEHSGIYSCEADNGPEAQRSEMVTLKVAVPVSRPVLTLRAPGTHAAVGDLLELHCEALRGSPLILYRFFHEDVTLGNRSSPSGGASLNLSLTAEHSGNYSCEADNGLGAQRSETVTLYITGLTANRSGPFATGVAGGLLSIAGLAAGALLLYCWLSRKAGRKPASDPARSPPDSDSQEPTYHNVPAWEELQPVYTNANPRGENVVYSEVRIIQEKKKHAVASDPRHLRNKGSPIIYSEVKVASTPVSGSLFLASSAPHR
Experimental: (§1) To further determine binding of the FcRH5 murine antibodies and IgG clones, binding of iodinated IgG variants to OPM2 cells expressing human FcRH5 and SVT2 cells expressing cynomologous FcRH5, Scatchard analysis was performed.
(§2) For Scatchard analysis, 0.5 nM I¹²⁵ labeled murine or IgG clone anti-FcRH5 was competed against unlabeled murine or IgG clone anti-FcRH5, respectively, ranging from 50 to 0.02 nM (12 step 1:2 serial dilution) in the presence of a transfected OPM2 line stably expressing human-FcRH5 and a transfected SVT2 line stably expressing cynomologous-FcRH5. After a four hour incubation at 4° C., cells were washed and cell pellet counts were read by a gamma counter (1470 WIZARD Automatic Gamma Counter; Perkin Elmer, Walthem, Mass.). All points were done in triplicate and counted for 10 minutes. The average CPM was used for Kd calculation using the New Ligand (Genentech, South San Francisco, Calif.) program.

[3] = biological target: T3, cynomolgus FcRH5 on stably transfected SVT2 cells (cynomolgus monkey); assay: Scatchard, 125I-labelled antibody competed with the unlabelled same antibody on SVT2.cyFcRH5 cells, 4 C; St. Error 1.340
T3 construct: also called cyno FcRH5; cynoFcRH5
T3 chain: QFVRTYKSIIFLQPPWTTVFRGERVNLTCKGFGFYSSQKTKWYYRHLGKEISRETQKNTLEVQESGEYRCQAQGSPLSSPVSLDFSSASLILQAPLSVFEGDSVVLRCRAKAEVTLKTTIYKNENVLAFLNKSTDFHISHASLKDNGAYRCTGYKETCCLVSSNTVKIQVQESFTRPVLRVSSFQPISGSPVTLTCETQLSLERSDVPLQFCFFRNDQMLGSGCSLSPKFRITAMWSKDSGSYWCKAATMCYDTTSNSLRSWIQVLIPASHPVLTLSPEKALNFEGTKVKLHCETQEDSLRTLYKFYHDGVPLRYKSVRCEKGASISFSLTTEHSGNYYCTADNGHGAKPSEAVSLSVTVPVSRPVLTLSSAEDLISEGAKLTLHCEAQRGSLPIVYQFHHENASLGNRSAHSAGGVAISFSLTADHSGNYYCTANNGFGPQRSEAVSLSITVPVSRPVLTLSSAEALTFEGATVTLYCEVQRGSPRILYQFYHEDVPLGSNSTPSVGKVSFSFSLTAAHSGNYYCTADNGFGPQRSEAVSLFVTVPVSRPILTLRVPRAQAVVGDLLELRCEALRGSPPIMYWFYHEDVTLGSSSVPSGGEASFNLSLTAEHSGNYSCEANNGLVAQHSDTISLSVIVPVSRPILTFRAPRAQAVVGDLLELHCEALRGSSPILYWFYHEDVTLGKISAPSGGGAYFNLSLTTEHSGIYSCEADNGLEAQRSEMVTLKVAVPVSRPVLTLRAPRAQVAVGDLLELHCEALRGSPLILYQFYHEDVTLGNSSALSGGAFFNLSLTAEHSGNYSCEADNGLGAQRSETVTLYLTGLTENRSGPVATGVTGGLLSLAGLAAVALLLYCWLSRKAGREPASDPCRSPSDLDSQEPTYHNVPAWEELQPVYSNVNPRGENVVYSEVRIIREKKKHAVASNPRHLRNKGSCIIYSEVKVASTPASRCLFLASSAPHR
Experimental: as §1, §2

[4] = biological target: T3, cynomolgus FcRH5 on stably transfected …; assay: Scatchard, 125I-labelled antibody competed with the unlabelled same antibody on SVT2.cyFcRH5 cells, 4 C; St. Error 0.022
Experimental: as §1, §2

[5] = biological target: T3, cynomolgus FcRH5 on stably transfected …; assay: Scatchard, 125I-labelled antibody competed with the unlabelled same antibody on SVT2.cyFcRH5 cells, 4 C; St. Error 0.000
Experimental: as §1, §2

[6] = biological target: T2, human FcRH5 on stably transfected cells …; assay: Scatchard, 125I-labelled antibody competed with the unlabelled same antibody on OPM2.huFcRH5 cells, 4 C; St. Error 0.050
Experimental: as §1, §2

[7] = biological target: T2, human FcRH5 on stably transfected cells …; assay: Scatchard, 125I-labelled antibody competed with the unlabelled same antibody on BJAB.huFcRH5 cells, 4 C; St. Error 0.046
[8] = biological target: T3, cynomolgus FcRH5 on stably transfected …; assay: Scatchard, 125I-labelled antibody competed with the unlabelled same antibody on SVT2.cyFcRH5 cells, 4 C; St. Error 0.530
Experimental: as §1, §2

[9] = biological target: T2, human FcRH5 on stably transfected cells …; assay: Scatchard, 125I-labelled antibody competed with the unlabelled same antibody on BJAB.huFcRH5 cells, 4 C; St. Error 0.007
[10] = biological target: T3, cynomolgus FcRH5 on stably transfected …; assay: Scatchard, 125I-labelled antibody competed with the unlabelled same antibody on SVT2.cyFcRH5 cells, 4 C; St. Error 0.027

B1: murine anti-FcRH5-7D11 monoclonal antibody (antibody, V domains shown)
VH: EVQLVESGGGLVQPGGSLKLSCAASGFTFSSYGMSWVRQTPDKRLELVATITRNGGTTYYLDSVKGRFTISRDNAKNTLYLQMSSLKSEDTAMYYCARGPIYYDYGYAMDYWGQGTTVTVSS
VL: DILLTQSPAILSVSPGERVSFSCRSSQSIGTNIHWYQQRTNGSPRLLIKFASESLSGIPSRFSGSGSGTDFTLSINSVESEDFADYYCQQSNSWPLTFGAGTKVEIK
notes: Murine IgG from a hybridoma; parent of ch7D11; also called 7D11.1.1; mu7D11
B1 was tested. Which Kd [1] did it give?
Its Kd is 6 nM.

B2: humanized anti-FcRH5 antibody 10A8 version 1 (antibody, human IgG1, V domains shown)
VH: EVQLVESGGGLVQPGGSLRLSCAASGFTFSSYAVSWVRQAPGKGLEWVATISSGGSLTFYLDSVRGRFTISRDNSKNTLYLQMNSLRAEDTAVYYCARPIPDYYALDYWGQGTLVTVSS
VL: DIQMTQSPSSLSASVGDRVTITCKASQDVSTAVAWYQQKPGKAPKLLIYSASYRYTGVPSRFSGSGSGTDFTLTISSLQPEDFATYYCQQHFSSPRTFGQGTKVEIKR
notes: Full-length human IgG1 with a human kappa constant domain; also called hu10A8 v1; hu10A8
Which results are given for B2?
Kd [2]: 1.44 nM; Kd [3]: 3.04 nM

B3: chimeric anti-human FcRH5 antibody 10A8 (antibody)
heavy: not shown
light: DIVMTQSHKFMSTSVRDRVSITCKASQDVSTAVAWYQQKPGQSPKLLIYSASYRYTGVPDRFTGSGSGTDFTFTISSVQAEDLAVYYCQQHFSSPRTFGGGTKVEIKRTVAAPSVFIFPPSDEQLKSGTASVVCLLNNFYPREAKVQWKVDNALQSGNSQESVTEQDSKDSTYSLSSTLTLSKADYEKHKVYACEVTHQGLSSPVTKSFNRGEC
notes: Murine 10A8 variable domains on human IgG1 and kappa constant domains; also called ch10A8; chMAFcRH5 (10A8)
B3 was tested. Which Kd [4] did it give?
Its Kd is 0.98 nM.

B4: cysteine engineered chimeric anti-FcRH5 10A8, heavy chain A118C (antibody, human IgG1, kappa, name in EU numbering)
heavy: not shown
light: B3 light
notes: It is built here from the ch10A8 chains plus the stated A118C change; also called thio-ch10A8.HC; thio-ch10A8-HC(A118C)
With B4 as the binder, how does the Kd [5] read?
Its Kd is 1.57 nM.

What about the Kd [6] of the same binder?
Its Kd is 0.85 nM.

B5: murine anti-FcRH5 (10A8) monoclonal antibody (antibody, V domains shown)
VH: EVQLVESGGGLVKPGGSLKISCAASGFTFSSYAVSWVRQTPEKRLEWVATISSGGSLTFYLDSVRGRFTISRDNAKNTLYLQMSSLRSEDTAMYYCARPIPDYYALDYWGQGTSVTVSS
VL: DIVMTQSHKFMSTSVRDRVSITCKASQDVSTAVAWYQQKPGQSPKLLIYSASYRYTGVPDRFTGSGSGTDFTFTISSVQAEDLAVYYCQQHFSSPRTFGGGTKVEIKR
notes: Murine IgG from a hybridoma, detected with anti-mouse IgG1 in FACS; also called mu10A8; MA10A8
What does the source list for B5?
Kd [7]: 0.44 nM; Kd [8]: 2.74 nM

B6: murine anti-FcRH5-6H1 monoclonal antibody (antibody)
chain 1: B5 VL
chain 2: B5 VH
How did the Kd [9] turn out when B6 was run?
The Kd was 0.19 nM.

And the Kd [10]?
The Kd was 0.38 nM.
